Experiment [1] deals with T1, recombinant human MASP1 active protease (amino acids 297-699, C-terminal His Tag) (human, UniProt P48740 297-699).
T1 sequence: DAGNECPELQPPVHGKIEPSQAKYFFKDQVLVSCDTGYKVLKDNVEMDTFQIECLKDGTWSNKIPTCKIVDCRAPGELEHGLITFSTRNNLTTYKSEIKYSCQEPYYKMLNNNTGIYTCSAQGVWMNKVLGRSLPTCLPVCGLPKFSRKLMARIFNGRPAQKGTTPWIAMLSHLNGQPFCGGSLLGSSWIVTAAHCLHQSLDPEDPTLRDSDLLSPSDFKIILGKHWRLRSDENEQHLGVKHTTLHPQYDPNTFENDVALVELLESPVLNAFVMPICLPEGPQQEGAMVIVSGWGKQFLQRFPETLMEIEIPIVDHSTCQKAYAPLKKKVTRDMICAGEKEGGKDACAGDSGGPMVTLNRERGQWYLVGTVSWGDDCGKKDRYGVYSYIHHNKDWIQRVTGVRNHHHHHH
The experiment is described as follows: cell-based or functional assay.

For experiment [2], the target named is recombinant human MASP2 active protease (amino acids 297-686, C-terminal His Tag) (human, UniProt O00187 297-686). The experiment is described as follows: cell-based or functional assay.

The values below come from US20210246166A1 (Bayer, published 2021).

Bridge positions count the residues as written; N and C are the ends. Square brackets hold non-standard residues; d marks the D form. Ends that are not written are not given here. Pro(cis-4-CF3) = O=C(O)[C@@H]1C[C@H](C(F)(F)F)CN1; Oic = O=C(O)[C@@H]1C[C@@H]2CCCC[C@@H]2N1; NMeI = CC[C@H](C)[C@H](NC)C(=O)O; tBuAla = CC(C)(C)C[C@H](N)C(=O)O; PEG4 = NCCOCCOCCOCCOCCC(=O)O; Pen = CC(C)(S)[C@H](N)C(=O)O; NMeC = CN[C@@H](CS)C(=O)O; NMeA = CN[C@@H](C)C(=O)O; Orn = NCCC[C@H](N)C(=O)O; Aib = CC(C)(N)C(=O)O; Sar = CNCC(=O)O

Chain of recombinant human MASP2 active protease (amino acids 297-686, C-terminal His Tag) (O00187 other isoform, or with tags, fused parts or gaps limits assumed): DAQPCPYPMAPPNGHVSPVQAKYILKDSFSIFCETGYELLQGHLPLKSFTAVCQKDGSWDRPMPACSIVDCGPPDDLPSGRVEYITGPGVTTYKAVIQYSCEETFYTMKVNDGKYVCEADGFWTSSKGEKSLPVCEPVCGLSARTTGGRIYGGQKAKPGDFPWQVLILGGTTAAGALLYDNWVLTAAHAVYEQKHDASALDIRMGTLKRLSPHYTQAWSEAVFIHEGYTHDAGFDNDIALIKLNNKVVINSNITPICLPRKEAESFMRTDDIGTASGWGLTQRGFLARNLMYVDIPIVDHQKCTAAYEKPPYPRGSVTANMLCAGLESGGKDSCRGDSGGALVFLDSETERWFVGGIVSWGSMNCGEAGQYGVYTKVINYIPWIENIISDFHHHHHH

B1: AIC+SRSLP-(Oic)-I-(Pen)+IPQ-OH (peptide)
peptide: AICSRSLP[Oic]I[Pen]IPQ-OH
modifications: disulfide 3-11; N-terminus assumed
SMILES: CC[C@H](C)[C@H](NC(=O)[C@H](C)N)C(=O)N[C@H]1CSSC(C)(C)[C@@H](C(=O)N[C@H](C(=O)N2CCC[C@H]2C(=O)N[C@@H](CCC(N)=O)C(=O)O)[C@@H](C)CC)NC(=O)[C@H]([C@@H](C)CC)NC(=O)[C@@H]2C[C@@H]3CCCC[C@@H]3N2C(=O)[C@@H]2CCCN2C(=O)[C@H](CC(C)C)NC(=O)[C@H](CO)NC(=O)[C@H](CCCNC(=N)N)NC(=O)[C@H](CO)NC1=O
With B1, in experiment [1], the “human MASP1 IC50” value was determined as 3 nM. Further, the “human MASP2 IC50” value in experiment [2] was 140 nM.

B2: AIC+SRS-((t-Bu)A)-PPIC+ID-OH (peptide)
peptide: AICSRS[tBuAla]PPICID-OH
modifications: disulfide 3-11; N-terminus assumed
SMILES: CC[C@H](C)[C@H](NC(=O)[C@H](C)N)C(=O)N[C@H]1CSSC[C@@H](C(=O)N[C@H](C(=O)N[C@@H](CC(=O)O)C(=O)O)[C@@H](C)CC)NC(=O)[C@H]([C@@H](C)CC)NC(=O)[C@@H]2CCCN2C(=O)[C@@H]2CCCN2C(=O)[C@H](CC(C)(C)C)NC(=O)[C@H](CO)NC(=O)[C@H](CCCNC(=N)N)NC(=O)[C@H](CO)NC1=O
Regarding B2, in experiment [1], the “human MASP1 IC50” value was 3.1 nM. For the same molecule, the “human MASP2 IC50” value in experiment [2] worked out at 83 nM.

B3: ((N-Me)G)-IC+SRSLP-(Oic)-I-(Pen)+IP-(PEG3(16 atoms))-NH2 (peptide)
peptide: [Sar]ICSRSLP[Oic]I[Pen]IP[PEG4]-NH2
modifications: disulfide 3-11; N-terminus assumed
SMILES: CC[C@H](C)[C@H](NC(=O)CNC)C(=O)N[C@H]1CSSC(C)(C)[C@@H](C(=O)N[C@H](C(=O)N2CCC[C@H]2C(=O)NCCOCCOCCOCCOCCC(N)=O)[C@@H](C)CC)NC(=O)[C@H]([C@@H](C)CC)NC(=O)[C@@H]2C[C@@H]3CCCC[C@@H]3N2C(=O)[C@@H]2CCCN2C(=O)[C@H](CC(C)C)NC(=O)[C@H](CO)NC(=O)[C@H](CCCNC(=N)N)NC(=O)[C@H](CO)NC1=O
For the molecule B3, the “human MASP1 IC50” value in experiment [1] turned out to be 3.2 nM. Moreover, the “human MASP2 IC50” value in experiment [2] turned out to be 79 nM.

B4: A-((N-Me)I)-C+SRS-((tBu)A)-PPI-((N-Me)C)+IPD-NH2 (peptide)
peptide: A[NMeI]CSRS[tBuAla]PPI[NMeC]IPD-NH2
modifications: disulfide 3-11; N-terminus assumed
SMILES: CC[C@H](C)[C@@H]1NC(=O)[C@@H]2CCCN2C(=O)[C@@H]2CCCN2C(=O)[C@H](CC(C)(C)C)NC(=O)[C@H](CO)NC(=O)[C@H](CCCNC(=N)N)NC(=O)[C@H](CO)NC(=O)[C@@H](NC(=O)[C@H]([C@@H](C)CC)N(C)C(=O)[C@H](C)N)CSSC[C@@H](C(=O)N[C@H](C(=O)N2CCC[C@H]2C(=O)N[C@@H](CC(=O)O)C(N)=O)[C@@H](C)CC)N(C)C1=O
Take B4: the “human MASP1 IC50” value in experiment [1] worked out at 1.2 nM. The “human MASP2 IC50” value in experiment [2] worked out at 620 nM.

B5: AIC+SRSLP-(Oic)-I-(Pen)+IPE-NH2 (peptide)
peptide: AICSRSLP[Oic]I[Pen]IPE-NH2
modifications: disulfide 3-11; N-terminus assumed
SMILES: CC[C@H](C)[C@H](NC(=O)[C@H](C)N)C(=O)N[C@H]1CSSC(C)(C)[C@@H](C(=O)N[C@H](C(=O)N2CCC[C@H]2C(=O)N[C@@H](CCC(=O)O)C(N)=O)[C@@H](C)CC)NC(=O)[C@H]([C@@H](C)CC)NC(=O)[C@@H]2C[C@@H]3CCCC[C@@H]3N2C(=O)[C@@H]2CCCN2C(=O)[C@H](CC(C)C)NC(=O)[C@H](CO)NC(=O)[C@H](CCCNC(=N)N)NC(=O)[C@H](CO)NC1=O
As to B5, the “human MASP1 IC50” value in experiment [1] is 3.1 nM. Besides, the “human MASP2 IC50” value in experiment [2] worked out at 160 nM.

B6: (Aib)-IC+SRS-((tBu)A)-PPI-(Pen)+IPD-NH2 (peptide)
peptide: [Aib]ICSRS[tBuAla]PPI[Pen]IPD-NH2
modifications: disulfide 3-11; N-terminus assumed
SMILES: CC[C@H](C)[C@@H]1NC(=O)[C@@H]2CCCN2C(=O)[C@@H]2CCCN2C(=O)[C@H](CC(C)(C)C)NC(=O)[C@H](CO)NC(=O)[C@H](CCCNC(=N)N)NC(=O)[C@H](CO)NC(=O)[C@@H](NC(=O)[C@@H](NC(=O)C(C)(C)N)[C@@H](C)CC)CSSC(C)(C)[C@@H](C(=O)N[C@H](C(=O)N2CCC[C@H]2C(=O)N[C@@H](CC(=O)O)C(N)=O)[C@@H](C)CC)NC1=O
B6: the “human MASP1 IC50” value in experiment [1] came to 1.19 nM. The “human MASP2 IC50” value in experiment [2] was 36 nM.
On the same counts, the results for [2‑(Piperidin)acetyl]ICSRS[tBuAla]PPI[Pen]IPD-NH2 (disulfide 3-11) [(2-(Piperidin)acetyl)-IC+SRS-((tBu)A)-PPI-(Pen)+IPD-NH2] are 3.3 nM and 71 nM.

B7: AIC+SRS-((tBu)A)-P-((4-CF3)P)-I-((N-Me)C)+IPD-NH2 (peptide)
peptide: AICSRS[tBuAla]P[Pro(cis-4-CF3)]I[NMeC]IPD-NH2
modifications: disulfide 3-11; N-terminus assumed
SMILES: CC[C@H](C)[C@H](NC(=O)[C@H](C)N)C(=O)N[C@H]1CSSC[C@@H](C(=O)N[C@H](C(=O)N2CCC[C@H]2C(=O)N[C@@H](CC(=O)O)C(N)=O)[C@@H](C)CC)N(C)C(=O)[C@H]([C@@H](C)CC)NC(=O)[C@@H]2C[C@H](C(F)(F)F)CN2C(=O)[C@@H]2CCCN2C(=O)[C@H](CC(C)(C)C)NC(=O)[C@H](CO)NC(=O)[C@H](CCCNC(=N)N)NC(=O)[C@H](CO)NC1=O
For the molecule B7, the “human MASP1 IC50” value in experiment [1] came to 3.2 nM. In addition, the “human MASP2 IC50” value in experiment [2] was 1600 nM.

B8: HIC+SRS-((tBu)A)-PPI-(Pen)+IPD-NH2 (peptide)
peptide: HICSRS[tBuAla]PPI[Pen]IPD-NH2
modifications: disulfide 3-11; N-terminus assumed
SMILES: CC[C@H](C)[C@H](NC(=O)[C@@H](N)Cc1c[nH]cn1)C(=O)N[C@H]1CSSC(C)(C)[C@@H](C(=O)N[C@H](C(=O)N2CCC[C@H]2C(=O)N[C@@H](CC(=O)O)C(N)=O)[C@@H](C)CC)NC(=O)[C@H]([C@@H](C)CC)NC(=O)[C@@H]2CCCN2C(=O)[C@@H]2CCCN2C(=O)[C@H](CC(C)(C)C)NC(=O)[C@H](CO)NC(=O)[C@H](CCCNC(=N)N)NC(=O)[C@H](CO)NC1=O
Consider B8, for which, in experiment [1], the “human MASP1 IC50” value amounted to 3.2 nM. Also, in experiment [2], the “human MASP2 IC50” value stood at 75 nM.

B9: ((N-Me)A)-IC+SRS-((tBu)A)-PPI-(Pen)+IP-NH2 (peptide)
peptide: [NMeA]ICSRS[tBuAla]PPI[Pen]IP-NH2
modifications: disulfide 3-11; N-terminus assumed
SMILES: CC[C@H](C)[C@H](NC(=O)[C@H](C)NC)C(=O)N[C@H]1CSSC(C)(C)[C@@H](C(=O)N[C@H](C(=O)N2CCC[C@H]2C(N)=O)[C@@H](C)CC)NC(=O)[C@H]([C@@H](C)CC)NC(=O)[C@@H]2CCCN2C(=O)[C@@H]2CCCN2C(=O)[C@H](CC(C)(C)C)NC(=O)[C@H](CO)NC(=O)[C@H](CCCNC(=N)N)NC(=O)[C@H](CO)NC1=O
As to B9, the “human MASP1 IC50” value in experiment [1] stood at 3.2 nM. Also, the “human MASP2 IC50” value in experiment [2] was determined as 24 nM.

B10: AIC+SRSLP-(Oic)-I-(Pen)+IPQ-NH2 (peptide)
peptide: AICSRSLP[Oic]I[Pen]IPQ-NH2
modifications: disulfide 3-11; N-terminus assumed
SMILES: CC[C@H](C)[C@H](NC(=O)[C@H](C)N)C(=O)N[C@H]1CSSC(C)(C)[C@@H](C(=O)N[C@H](C(=O)N2CCC[C@H]2C(=O)N[C@@H](CCC(N)=O)C(N)=O)[C@@H](C)CC)NC(=O)[C@H]([C@@H](C)CC)NC(=O)[C@@H]2C[C@@H]3CCCC[C@@H]3N2C(=O)[C@@H]2CCCN2C(=O)[C@H](CC(C)C)NC(=O)[C@H](CO)NC(=O)[C@H](CCCNC(=N)N)NC(=O)[C@H](CO)NC1=O
Turning to B10, the “human MASP1 IC50” value in experiment [1] worked out at 3.3 nM. In addition, the “human MASP2 IC50” value in experiment [2] was 140 nM.

B11: A-((N-Me)I)-C+SRS-((tBu)A)-P-(Oic)-I-((N-Me)C)+IPD-NH2 (peptide)
peptide: A[NMeI]CSRS[tBuAla]P[Oic]I[NMeC]IPD-NH2
modifications: disulfide 3-11; N-terminus assumed
SMILES: CC[C@H](C)[C@@H]1NC(=O)[C@@H]2C[C@@H]3CCCC[C@@H]3N2C(=O)[C@@H]2CCCN2C(=O)[C@H](CC(C)(C)C)NC(=O)[C@H](CO)NC(=O)[C@H](CCCNC(=N)N)NC(=O)[C@H](CO)NC(=O)[C@@H](NC(=O)[C@H]([C@@H](C)CC)N(C)C(=O)[C@H](C)N)CSSC[C@@H](C(=O)N[C@H](C(=O)N2CCC[C@H]2C(=O)N[C@@H](CC(=O)O)C(N)=O)[C@@H](C)CC)N(C)C1=O
Turning to B11, the “human MASP1 IC50” value in experiment [1] is 3.1 nM. In addition, in experiment [2], the “human MASP2 IC50” value is 590 nM.

B12: (Orn)-IC+SRS-((tBu)A)-PPI-(Pen)+IP-NH2 (peptide)
peptide: [Orn]ICSRS[tBuAla]PPI[Pen]IP-NH2
modifications: disulfide 3-11; N-terminus assumed
SMILES: CC[C@H](C)[C@H](NC(=O)[C@@H](N)CCCN)C(=O)N[C@H]1CSSC(C)(C)[C@@H](C(=O)N[C@H](C(=O)N2CCC[C@H]2C(N)=O)[C@@H](C)CC)NC(=O)[C@H]([C@@H](C)CC)NC(=O)[C@@H]2CCCN2C(=O)[C@@H]2CCCN2C(=O)[C@H](CC(C)(C)C)NC(=O)[C@H](CO)NC(=O)[C@H](CCCNC(=N)N)NC(=O)[C@H](CO)NC1=O
Consider B12, for which the “human MASP1 IC50” value in experiment [1] turned out to be 3.2 nM. In experiment [2], the “human MASP2 IC50” value turned out to be 93 nM.

B13: ((N-Me)A)-IC+SRSLP-(Oic)-I-(Pen)+IPE-NH2 (peptide)
peptide: [NMeA]ICSRSLP[Oic]I[Pen]IPE-NH2
modifications: disulfide 3-11; N-terminus assumed
SMILES: CC[C@H](C)[C@H](NC(=O)[C@H](C)NC)C(=O)N[C@H]1CSSC(C)(C)[C@@H](C(=O)N[C@H](C(=O)N2CCC[C@H]2C(=O)N[C@@H](CCC(=O)O)C(N)=O)[C@@H](C)CC)NC(=O)[C@H]([C@@H](C)CC)NC(=O)[C@@H]2C[C@@H]3CCCC[C@@H]3N2C(=O)[C@@H]2CCCN2C(=O)[C@H](CC(C)C)NC(=O)[C@H](CO)NC(=O)[C@H](CCCNC(=N)N)NC(=O)[C@H](CO)NC1=O
Turning to B13, the “human MASP1 IC50” value in experiment [1] amounted to 3.3 nM. In addition, the “human MASP2 IC50” value in experiment [2] came out at 200 nM.
